The DeepSol protein solubility set

assay: soluble on expression in E. coli; label from the status in PepcDB or PDB records

Soluble on expression in E. coli, not soluble:
MGSDKIHHHHHHMLLVFASCGVNKSTEDSKKTNETKVEQIATLSAGTPVQSLDPATAVDQTSVTLLANVMEGLYRLDEKNQPQPAIAAGQPKISNGGKTYTIVIRDGAKWADGTDITADDFVTAWQRVLDPKTASPNVELFAAIKNAKEISIGKQQKETLGVKSKGNKTIEIELEEPTPYFTDLLALTAYFPVQQNAVKEYGKEYGTTKENIVTNGAFTLTDLNGVGISDKWTIAKNPKYWDKKHVAMEKIKFQVVKDINTGINLYNDGQLDDAPVAGEYSKQLENNKDFIRELSATTMFLEVNQRNKKSITSNKHARQAINFAIDREAISNKILTNGSIPAKGVVPSKLVYNPKTGKDFTNSSLVFLDKSKAKDSWEKAKKELKGTDLSIDIMVNEEDLSKKLGEYLQNELQDTLDGLKVSVTAVPATLQTERLNSGNFMIALSGWQADFADPVSFLANFESKSSLNHGGYANEEYDKLLKNNSSKRLQELKDAEKLILEDAGVIPLLQIGNAKLRNQKISEMKVHSIGAKYDYKTMEIK, MGSDKIHHHHHHMLLYIHGFNSSPFSDKAIMTAQYMAQHHPSVLFHQPQLPNTPKAAMALLLEYVEAALKDDEPLTYIGSSLGGYFASYLAEHYGGRAVLVNPAVKPFELFDEFMGPQFNPYTGENYQVLPEHKMEVAEFNTPVIRNPDRFLVLLQSGDEVLDYREALSKYHHCQLRIEAAGDHSFVGYEHYLQTISQFLHLP, MGSDKIHHHHHHMLNEIITIYAITDDLLKAIGHDDDIRRDMIDAEIITTALVAAMFFNGNHSKACAYMKDHKLIPNMLEKSRFNLRLHNLSMLLNDLFHQIGMIIKEISDSTEYLLDSFPVTICDNIRIFQVHLIQSEEYRGYIASKKRYFYGVRVQLISTKSGIPVEFAFLPGSANDVRGLNALPFNLPPGSEVYADAAYTDYTVEDDMAQSSQISLKVMRKKNSKRQDQPWNQYVKQYTRHYIETVFSCITCIFPKSIHAVTYEGFLLKLQAFIFAFTLKSAFM, MGSDKIHHHHHHMLNIVVVAHPDDEILGFGATGAKLAAKGEVVQPIILCGSVDARTLRPTDEELHSDMLKANSLVGFSKPVLGDFPNISMNTVPHVELVQFIEEQIKKFRPNRIFTHHPNDLNNDHTQVSNACLAASRLFQRRNDLPALEALYFMEILSSTDWAFPAVGDGFKPTTFVEITCELEKKLAALHHYRNVMRPFPHPRSDEVVTGLAAYRGGQAGLKYAEAFQLVFKQGV, MGSDKIHHHHHHMLNPLWLKTFITLVETGHFTQTASKLFMTQPGVSQHLNKLEQACGHQLLIRSRSGIELTEAGERLYQYALSQARAEAALLDSLDEDNPFSGSCRLACSGSLAQLLYPKLLALQAAHPGLKVHMEAAPNARIINEVQQGDKDLGIITAPPPRGLFSDTDIGTQALCLVLPASSEATTDDASLPSINELKVLGLISHPDAAHYLSLFFAHSGSPGYQNAFAEDFPISSYINQLGQILLPVSMGLGFTVLPLSVVEQFSERDKLRVCVGLERVFEPLYLIHKRQRQLPARFDTIRSLIQSVLTSTTDSPQ, MGSDKIHHHHHHMLPRQPRSRTSADCSGFPARYGGWLALLLSRLSRSAGKEPGCERGARPRTAMRGSHGSISCIATGCLLSSSAMIWTISDLHLSFARPKPMDIFGPGWKDHPERIAQAWRERVAATDWVLIAGDISWAMKLPDALLDLQWIDALPGTKVLIRGNHDYWCPRRVNSIRRHLPPSLRLIGADALDIGEAVVCGTRGWITPETPGFTETDLPIYQRELGLLERALAAGQALAVNKPLIVMIHFPPFVNRQPTEFSRRIAASGAAACIYGHLHRRYDWDNAVQGRVDGVYYQLTACDYLGFGPVAVRGLNGWSGG, MGSDKIHHHHHHMLRGINRQIIFEDDEDYQNFMGTIKETQEKSGYEVYAYCLMSNHVHLLLKEVTEDLGIAFRRIGAIYVYWYNWKYSRRGHLFQARYKSEAVETDSYFLTVLRYIHQNPYKAGIVKNIADYPWSSYGEYVGEPRICDVEFGLNMFSTNRTNAVKLFEEFNLAENQDQCLDYNQDVRLNDTEASNFIRSISDVQSPTEIQGFEKDKRNEVIKKCKSKGLSIRQIERLTGVSFGVIRTI, MGSDKIHHHHHHMLRLFQRKSAVLPPVAAVTETALSKGLLQPKPAAELLATPRRQKLLEHIWQRTSLSRKQFHTLYRVPLERYADLVQQFPASESHHHAYLGGMLDHGLEIVAFALKLRQSHLLPAGASPEDQAAQAEAWTAAVAYAALLHDIGKIAVDLHVELQGGRIWHPWHGPLSQPYRFRHREGREYRLHGAATGLLYSRILDSAALDWLSGYPALWSQLLYVLSGQYEHADMLGELVVQADRASVAQELGGDPAKVMAAPKHALQRKLLEGLRYLLKEQLKLNQPEASDGWLTEDALWLVSKTVSDKLRAHLLSQGIDGIPASNSAVFNVLQEHSMLQLTCPHRPYQ, MGSDKIHHHHHHMLRSMYSGISGLKNFQTKLDVVGNNIANVNTFGYKKGRVTFKDLVSQSVGSASGNGGGVGGANPKQVGLGASMATVDSVSNQGALQNTGRTLDVAISGEGFFQIQTADGIRYARSGNFYTDLDGNLVTGDGNYVIGSDNAGPLGQPTIPLGGGYKTINIPANAQNLSIGKDGLVTYVDPAGTLQQAGYISLANFPNPGGLEKSGSNMYSISQNSGQPTSATPSTNGLGQLTSGTLEMSNVDLSEEFTEMIIAQRGFQANTRIITTSDQILEELVNLKR, MGSDKIHHHHHHMLRVKNLRLKYPNGDRKIFDNLNLEIKNKEKVLLLGPSGSGKSTLLNVLSGIVPNLIELPMKYDELNIDHDSGVIFQDPDNQFCMPKVYEELAFVLENRNIPRSEMDQEIENALKSVDLNVTHKTYVNNLSGGMKQKLAIVETILQKSKTLFLDEPTAMLDVKATEDLWKKLINLWKDQTVLIVEHKVEHIWQHVDRVLLLNYDGEIVADDTPEQILDHYEALLTEYGVWHPRAWHSAPRPIPLPNQTKNLLFHFDDGQIIRGKKTLFSSKELKLYSGEWLTITGKNGAGKTSLLEAMLQLIKYEGDMFYRDQLLSKIKQAAKHMYLVYQNPELQFITNSVYDEVYIHYNHLDPKHANDETMDLLKLLHLDQVKDHHPFEISTGQKRRLSVATALSSKAEIILLDEPTFGLDSHNTFQLIKLFQERVNQGQTIIMVTHDPEIIKRYPTRRLRVEDGCLKEMEGEHIV, MGSDKIHHHHHHMLSKICMKILTVLDSYPPDLNGGAYFTHRLAKFLQAKGHEVLVICPSRSLKQGYTSYEGVNLYGVRSWPALGYKNFRVCWPFFIKKGILKAITDFNPDVVHLQGKFFLGGICYRACRKKGIPLMATNHFMPENFFHYTHLPKYFEKWFHRTTWNIVIDMLNHVKIVTTPTHTAANLLKEVHIQKEIHVVSCGVDLQKFQPKQNANLIRQRYKIPDKPILLYAGRLDKEKNLSIAIKAFYKARQSIDAHFVLTGRGAELQRLKKLVQTLNLTEHVTFTGYLSDAEYPLVYSLANCFVNPGTAELQSIVALEAIASGLPLLAAKAMALPELVKEGVNGYLFDPNDVETLSCYMVKILSDRTFSEQMGRESRKLSQEHDIKRTIEQYETLYQSMVS, MGSDKIHHHHHHMLSLRHSCPRRALKVPNPFVEEAGPQPPKVLKAPVEIQANLRLLQDSRDSLLITFADRNQRFQSFLVDIDRDRGMVALDELIPNTGERFLQNGEAFRVEAFHEGVRIAWECERPVQFGEHDGVPCYWAALPAEVLYHQRRNAYRASIKQSQPIAAEIAGEKLRAPLSGQLLDISATGAKLRFAGNVAERLHPGEIYEDFSAQLPQGAISSAIELRHVRFDEKLDATFAGVRFSEMSGLAQRQVDRFVYQLQREARRFEKDELF, MGSDKIHHHHHHMLSRFARQLALPVFNGVLHPTRATSSIAHTIKVAHKIDETREKALLGGGKKRVDAQHARGKLTARERIDLLLDRNTFREYDMFAEHTCNDFGMQKEKYPGDSVVTGRGEINGRTVFVFSQDFTVFGGSLSSIHAKKIVKIMREAMLVGAPVIGLNDSGGARIQEGVESLAGYADIFQENVMASGVVPQISMIMGPCAGGAVYSPALTDFTFMVRDTSYLFITGPDVVKAVTNEEVTQEELGGAKTHTVTSGVAHGAFDNDVDALMSLRELFNYLPLSNTDAAPIRAAEDPWDRAVPSLDTVVPLESTAAYNMKDVVHALVDEGDFFEIMPDYAKNLVIGFARMNGRTVGIVGNNPKFAAGCLDINSSVKGARFVRFCDAFNIPIITLVDVPGFLPGTAQEYGGIIRHGAKLLYAFAEATVPKITIITRKAFGGAYDVMSSKHLRGDINYAWPTAEVAVMGAKGAVSILFRNDKEHAVQHEEEYTELFSNPFPAAVRGFVDDIIIPSETRKKVCEDLNMLESKKLKNPWKKHGNIPL, MGSDKIHHHHHHMLSTAKERQLKIVNRLKVEQFMRIIDLVELVNYSEATVKRDLVELEKEGLVRRTRGGAMIIDNKKIDLPYLMKMNERSNETSKIRIADIAKSLIRDDMVIFLDSSSTSLHLIDVLSKFDGLQIITNGVMTASMLSEFTNARVSILGGSILTKRYTVNGAKAYNDALTYNADIAFVSCRGIDYDKGATETHEGEALIKQAFRRQSSSLVLLVTEEKVGHKFMHQSLACHDIDYLITDFKLDSDVEEQFKTHQITCLY, MGSDKIHHHHHHMLTHYRDYESFKQVAIPLLERRPDVHQLPLGILERGDVPILMAIAEEGDRTIVVLQTIEEQAILAGDVFTYEGIRKLSRILNCPGYVGEQAIIEPLLASHSPFQIKMDQGIYTLTTVIPPVTLDYEFRLIEERFAPQAVAFGWSFIQETGALPATERSRLKNEQTIRKHIEAETLFGLFDGEQLLAMASSSRPTASGVTISYVFTPPKWRKQGIASYLVACLSEHLLQQYPMVSLYTDWSNKTSNKIYQAVGFELAGRSMQITKRPKYQ, MGSDKIHHHHHHMLTVSDVSLRFSDRKLFDEVNINFTAGNTYGLIGANGAGKSTFLKILAGDIEPTTGHIALGPDERLSVLRQNHFDYEDERVIDVVIMGNETLYSIMKEKDAIYMKEDFSDEDGVRAAELEGEFAELGGWEAESEASQLLQNLNISEELHYQNMSELANGDKVKVLLAKALFGKPDVLLLDEPTNGLDIQSITWLEDFLIDFENTVIVVSHDRHFLNKVCTHMADLDFGKIKLFVGNYDFWKESSELAARLQADRNAKAEEKIKQLQEFVARFSANASKSKQATSRKKMLDKIELEEIVPSSRKYPFVNFKAEREMGNDLLTVENLSVTIDGEKILDNISFILRPGDKTALIGQNDIQTTALIRALMGDIEYEGTIKWGVTTSRSYLPKDNSRDFASGESILEWLRQFASKEEDDNTFLRGFLGRMLFSGDEVNKSVNVLSGGEKVRVMLSKLMLLKSNVLVLDDPTNHLDLESISSLNDGLKDFKESIIFASHDHEFIQTLANHIIVLSKNGVIDRIDETYDEFLENTEVQAKVAQLWK, MGSDKIHHHHHHMMAPNQFSSGDVIADRRADYARMLAESGDYPAAAELMEQALELAPRWTAGWFRFGEYHEKAGETAKAVAAYEKVAELDAEGLFAAELKLAVLGAAETPEQPPSRYVEGLFDDYADRFETSLVEKLDYSVPQKLAELIGKAATGDAFDTIVDIGCGTGLLGIEIRSLAKRLEGFDISQNMLAKADEKSLYDHLGQADLSLDAEASGLFTPVLTQHRADLVAAADVMMYLGSLETVMPLVSALLKPSGFFAFSVEDAGDEQGFVLRESLRYAHSKSYVIDLLERSGFSPMEIRKTTIRKDAGKPLSGILFLARAKA
